The test has as its target T1, KNL-2 central region (aa 269-470), recombinant (C. elegans, UniProt O44548 269-470).
T1 construct: The His9-MBP tag was cut off with TEV protease after mixing and before the pull-down; also called KNL-2 central fragment; source: E. coli BL21-Star, purified (MBP FF crude column, desalting); not shown: His9-MBP, N-terminal, cleaved
T1 sequence (looked up): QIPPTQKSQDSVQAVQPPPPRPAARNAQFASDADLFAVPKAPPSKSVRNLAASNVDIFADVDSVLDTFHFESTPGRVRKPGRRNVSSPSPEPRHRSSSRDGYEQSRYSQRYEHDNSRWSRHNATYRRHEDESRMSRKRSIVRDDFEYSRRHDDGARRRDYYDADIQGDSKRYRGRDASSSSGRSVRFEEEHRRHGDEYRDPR
Put plainly: pull-down; recombinant proteins mixed in equimolar amounts, 1 h at RT, TEV digestion 30 min at RT, glutathione magnetic agarose beads 1 h at RT; SDS-PAGE with Coomassie stain. As to conditions: both partners purified.

B1: CENP-A N-terminal tail (aa 1-179) fused to GST (domain or fragment, C. elegans, UniProt P34470 1-179, looked up)
chain: MADDTPIIEEIAEQNESVTRIMQRLKHDMQRVTSVPGFNTSAAGVNDLIDILNQYKKELEDDAANDYTEAHIHKIRLVTGKRNQYVLKLKQAEDEYHARKEQARRRASSMDFTVGRNSTNLVDYSHGRHHMPSYRRHDSSDEENYSMDGTNGDGNRAGPSNPDRGNRTGPSSSDRVRMR
notes: CENP-A homolog HCP-3, C. elegans, residues 1-179 (N-terminal tail); The His9-MBP tag was cut off with TEV protease after the two proteins had been mixed and before the pull-down on glutathione beads; also called His9-MBP-TEV-CENP-A^1-179-GST; GST::CENP-A N-terminal tail; source: E. coli BL21-Star, purified (Ni-charged chelating HiTrap column, desalting); not shown: His9-MBP, N-terminal, cleaved; …
As to B1, the binding result is reported as “binds”.
